Measurements from PMC9284671 (Structure (London, England : 1993), 2022).

Key:
[1] = target: hCoV-HKU1 full-length spike (hCoV-HKU1 isolate N1, UniProt Q5MQD0); experiment: flow cytometry on cells
[2] = target: SARS-CoV-2 full-length spike (WA-1) (SARS-CoV-2 WA-1 (GenBank QHD43416.1), UniProt P0DTC2); experiment: flow cytometry on cells
[3] = target: MERS-CoV full-length spike (EMC) (MERS-CoV EMC/2012 (GenBank AFS88936), UniProt K0BRG7); experiment: flow cytometry on cells
[4] = target: hCoV-OC43 full-length spike (hCoV-OC43 (AAT84354.1, cross-referenced …, UniProt P36334)); experiment: flow cytometry on cells
[5] = target: SARS-CoV full-length spike (Urbani) (SARS-CoV Urbani, UniProt P59594); experiment: flow cytometry on cells
[6] = target: SARS-CoV-2 S-dTM (soluble spike protein residues 1-1,206 of wild-type WA-1 strain) (SARS-CoV-2 WA-1, UniProt P0DTC2); experiment: ELISA
[7] = target: hCoV-OC43 S2P (pre-fusion-stabilized soluble spike) (hCoV-OC43 (AAT84354.1, cross-referenced …, UniProt P36334, stabilised)); experiment: ELISA
[8] = target: hCoV-HKU1 S2P (pre-fusion-stabilized soluble spike) (hCoV-HKU1 isolate N1, UniProt Q5MQD0, stabilised); experiment: ELISA
[9] = target: T1, SARS-CoV-2 spike S2 subunit (SARS-CoV-2 (WA-1 / Wuhan-Hu-1), UniProt P0DTC2); experiment: far-Western, overlay or dot blot
[10] = target: T2, SARS-CoV spike peptide #154 (PELDSFKEELDKYFKNH) (SARS-CoV); experiment: far-Western, overlay or dot blot
T2 chain: PELDSFKEELDKYFKNH

[11] = target: T1, SARS-CoV-2 spike S2 subunit; experiment: negative-stain electron microscopy

Measured: binding result

B1: WS6 (monoclonal antibody, IgG) (antibody, V domains shown)
VH: EVQFQQSGTVLARPGASVKMSCKASGYTFTNYWIHWVKQRPGQGLEYIGGTYPGNGDTTYNQKFKGKAKVTAVTPTSTAYMDLSSLTNEDSAVYYCTRTGSYFDYWGQGTTLTVSS
VL: QIVLTQSPAIMSASPGEKVTISCSATSSVSYIYWYQQRPGSSPKPWIYRTSNLASGVPVRFSGSGSGTSYSLTISNMEAEDAATYYCQQYQSYPPTFGAGTKLELK
not listed: [11]
binds: all other assays above

B2: WS6 Fab (antigen-binding fragment of WS6) (Fab, V domains shown)
VH: B1 VH
VL: B1 VL
binds: [11]
